This is an account of results in paper PMC8429728, “TNK1 is a ubiquitin-binding and 14-3-3-regulated kinase that can be targeted to block tumor growth” (Nature Communications, 2021).

Experiment [1] concerns the target FLAG-TNK1 ΔUBA (1–580) (human) (UniProt Q13470). The experiment can be described thus: co-IP; FLAG-TNK1 (WT or mutants) precipitated on anti-DYKDDDDK resin from HEK-293T lysate (10 mM HEPES KOH pH 7.5, 150 mM KCl, 0.01% IGEPAL), 1 h 4 °C, washed with PBS; immunoblotted for 14-3-3 or ubiquitin; in Fig. 2c cells treated with 1 uM kinase inhibitors for 4 h. Background: A western blot detects proteins with antibodies after separation by electrophoresis.

For experiment [2], the target named is Biotin-(4xPEG)-RNKGISRp… (human). Put plainly: BLI; biotin-tagged peptide loaded on streptavidin biosensors; 14-3-3ζ 50–1000 nM, 4 s association, 120 s dissociation; 0.001% TBST; 30 °C; Kd = Koff/Kon, mean of 3 runs. In general terms: In BLI a coated tip is dipped into the sample, and binding shifts an interference pattern.
Experiment [3] concerns the target 14-3-3ζ (UniProt P63104). The experiment can be described thus: in vitro europium/Cy5 FRET binding assay.

Chain of 14-3-3 (endogenous, isoform not told) (P63104 whole entry, canonical isoform): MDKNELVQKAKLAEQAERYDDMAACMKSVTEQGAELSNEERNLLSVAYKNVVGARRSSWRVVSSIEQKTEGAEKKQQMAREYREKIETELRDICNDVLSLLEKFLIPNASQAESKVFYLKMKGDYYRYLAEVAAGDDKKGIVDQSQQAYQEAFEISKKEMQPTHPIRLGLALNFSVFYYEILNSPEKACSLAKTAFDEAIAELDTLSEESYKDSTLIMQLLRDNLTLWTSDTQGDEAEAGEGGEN
Chain of FLAG-TNK1 ΔUBA (1–580) (human) (Q13470 1-580, stated change not applied): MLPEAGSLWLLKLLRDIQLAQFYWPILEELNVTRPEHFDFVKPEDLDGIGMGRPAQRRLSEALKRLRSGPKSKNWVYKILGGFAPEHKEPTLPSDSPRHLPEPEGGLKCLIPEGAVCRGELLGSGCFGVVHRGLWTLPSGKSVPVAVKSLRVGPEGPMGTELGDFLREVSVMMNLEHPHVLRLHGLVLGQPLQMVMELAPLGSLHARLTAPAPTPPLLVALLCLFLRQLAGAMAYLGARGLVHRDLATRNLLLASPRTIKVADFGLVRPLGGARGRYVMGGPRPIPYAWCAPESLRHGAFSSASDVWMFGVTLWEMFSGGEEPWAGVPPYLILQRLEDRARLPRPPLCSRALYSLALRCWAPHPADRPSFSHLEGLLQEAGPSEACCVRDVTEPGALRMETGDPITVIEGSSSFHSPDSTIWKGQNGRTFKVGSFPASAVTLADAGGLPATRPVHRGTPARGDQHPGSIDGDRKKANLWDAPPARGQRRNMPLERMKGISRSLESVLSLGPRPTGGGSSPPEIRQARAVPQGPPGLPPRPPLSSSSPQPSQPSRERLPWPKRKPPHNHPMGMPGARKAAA

For “14-3-3 (endogenous, isoform not told) (from UniProt P63104 1-245) (natural protein)”, the fold increase in interaction with 14-3-3 compared to WT TNK1 in experiment [1] came to 4 fold.
“14-3-3ζ (purified, from the GST-14-3-3ζ plasmid) (from UniProt P63104 1-245) (natural protein)” showed a Kd in experiment [2] of 3.39 µM.
As for “TNK1 (from UniProt Q13470) pS500/pS502/pS505 peptide”, in experiment [3] (reference: pS502 mono-phosphorylated peptide, sites S500,S505), the “binding against the reference” value is recorded as “lost”.
With “TNK1 (from UniProt Q13470) pS502 peptide”, the “binding against the reference” value in experiment [3] (reference: non-phosphorylated peptide, sites S502) is reported as “gained”.

By Kd is commonly meant the constant that tells how readily two partners part at equilibrium. Higher therefore signals lower affinity.
